The results in this text go back to patent publication US20050025740A1.

The target in this experiment is binding site for alpha-melanocyte stimulating hormone on mouse melanoma cells (mouse). Kind of experiment: binding assay using mouse melanoma cells (Bagutti 1992); ratio against full-length natural alpha-MSH.

As for “dioxime formed between the aminooxyacetyl peptide (AOA-Nle-Asp-His-(D)Phe-Arg-Trp-Lys-amide) and glyoxal (O=CH-CH=O)”, the relative binding (Kd of full-length natural hormone divided by Kd of the oxime analog) stood at 3.33.

In the case of “control monooxime of the alpha-MSH analog Nle-Asp-His-(D)Phe-Arg-Trp-Lys-amide (aminooxyacetyl peptide oximated with acetaldehyde)”, the relative binding (Kd of full-length natural hormone divided by Kd of the oxime analog) amounted to 0.82.
